Assay results as given in patent publication US7320863B2, “Thyroid sodium/iodide symporter and nucleic acid encoding same” (Albert Einstein College of Medicine of Yeshiva University, priority 1996, dated 2008).

Substrate: I
Assay: cells, lysate or membranes
Conditions: other: initial velocity rates at 2 min, iodide 1.25 to 250 μM, oocytes 60 h after injection; 37.0 °C

B1: rat sodium/iodide symporter (Rattus norvegicus) (protein)
chain: MEGAEAGARATFGAWDYGVFATMLLVSTGIGLWVGLARGGQRSADDFFTGGRQLAAVPVGLSLAASFMSAVQVLGVPAEAARYGLKFLWMCAGQLLNSLLTAFLFLPIFYRLGLTSTYQYLELRFSRAVRLCGTLQYLVATMLYTGIVIYAPALILNQVTGLDIWASLLSTGIICTLYTTVGGMKAVVWTDVFQVVVMLVGFWVILARGVILLGGPRNVLSLAQNHSRINLMDFDPDPRSRYTFWTFIVGGTLVWLSMYGVNQAQVQRYVACHTEGKAKLALLVNQLGLFLIVASAACCGIVMFVYYKDCDPLLTGRISAPDQYMPLLVLDIFEDLPGVPGLFLACAYSGTLSTASTSINAMAAVTVEDLIKPRMPGLAPRKLVFISKGLSFIYGSACLTVAALSSLLGGGVLQGSFTVMGVISGPLLGAFTLGMLLPACNTPGVLSGLAAGLAVSLWVAVGATLYPPGEQTMGVLPTSAAGCTNDSVLLGPPGATNASNGIPSSGMDTGRPALADTFYAISYLYYGALGTLTTMLCGALISYLTGPTKRSSLGPGLLWWDLARQTASVAPKEDTATLEESLVKGPEDIPAVTKKPPGLKPGAETHPLYLGHDVETNL
In the case of B1, the Km is reported as 36 µM.
